Columns and labels:
[1] = molecular target: T1, rat ASIC1a-eYFP (rASIC1a-eYFP) on transiently transfected CHO-K1 cells (rat, UniProt P55926 1-526); assay: FACS on transiently transfected CHO-K1 cells
T1 construct: whole, on cells; not shown: eYFP fusion partner
T1 sequence (looked up): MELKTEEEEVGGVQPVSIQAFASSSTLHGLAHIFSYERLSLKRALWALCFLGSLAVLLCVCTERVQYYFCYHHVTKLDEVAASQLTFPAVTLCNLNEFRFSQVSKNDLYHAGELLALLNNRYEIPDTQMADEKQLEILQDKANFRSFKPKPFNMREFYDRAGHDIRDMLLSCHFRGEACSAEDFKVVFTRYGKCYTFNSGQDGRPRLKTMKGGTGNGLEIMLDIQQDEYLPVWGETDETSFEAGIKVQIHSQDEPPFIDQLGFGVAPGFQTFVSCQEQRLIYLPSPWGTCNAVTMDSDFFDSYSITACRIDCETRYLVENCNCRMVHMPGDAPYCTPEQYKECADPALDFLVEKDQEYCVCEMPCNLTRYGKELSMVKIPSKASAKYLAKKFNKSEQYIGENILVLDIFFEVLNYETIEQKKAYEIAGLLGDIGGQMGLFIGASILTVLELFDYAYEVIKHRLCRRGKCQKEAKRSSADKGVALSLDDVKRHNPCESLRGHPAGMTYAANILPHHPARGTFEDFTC
Description: (§1) To investigate the species selectivity of ASC06-IgG1 affinity-matured antibodies, plasmids encoding fusion proteins of eYFP with […] homologs of ASIC1a were constructed. These plasmids included those encoding human ASIC1a (hASIC1a-eYFP), mouse ASIC1a (mASIC1a-eYFP), and rat ASIC1a (rASIC1a-eYFP). CHO-K1 cells were transiently transfected with the ASIC1a-eYFP plasmids, and a fluorescence activated cell sorting (FACS)-based binding assay was carried out to determine binding to the homologs or isoforms of ASIC1a expressed on the cell surface. An isotype control was used as a negative control for binding (NC). ASC06-IgG1 was used as a positive control. Summarily, the CHO-K1 cells expressing the ASIC1a-eYFP (green) homologs were stained with the indicated antibody (red) and subjected to FACS.
(§2) To examine the ASIC isotype selectivity of ASC06-IgG1 affinity-matured antibodies, plasmids encoding fusion proteins of eYFP with isoforms of […] were constructed. These plasmids included those encoding human ASIC1b (hASIC1b-eYFP), human ASIC2a (hASIC2a-eYFP), and human ASIC3a (hASIC3a-eYFP). CHO-K1 cells were transiently transfected with these plasmids and used in a FACS-based binding assay disclosed herein. Binding of ASC06-IgG1 to CHO-K1 cells expressing human ASIC1a-eYFP (hASIC1a-eYFP) was used as a positive control (data not shown and FIG. 2), and an isotype control was used as a negative control for binding (NC).

[2] = molecular target: T2, human ASIC2a-eYFP (hASIC2a-eYFP) on transiently transfected CHO-K1 cells (human, UniProt Q16515 1-512); assay: FACS on transiently transfected CHO-K1 cells
T2 construct: whole, on cells; not shown: eYFP fusion partner
T2 sequence (looked up): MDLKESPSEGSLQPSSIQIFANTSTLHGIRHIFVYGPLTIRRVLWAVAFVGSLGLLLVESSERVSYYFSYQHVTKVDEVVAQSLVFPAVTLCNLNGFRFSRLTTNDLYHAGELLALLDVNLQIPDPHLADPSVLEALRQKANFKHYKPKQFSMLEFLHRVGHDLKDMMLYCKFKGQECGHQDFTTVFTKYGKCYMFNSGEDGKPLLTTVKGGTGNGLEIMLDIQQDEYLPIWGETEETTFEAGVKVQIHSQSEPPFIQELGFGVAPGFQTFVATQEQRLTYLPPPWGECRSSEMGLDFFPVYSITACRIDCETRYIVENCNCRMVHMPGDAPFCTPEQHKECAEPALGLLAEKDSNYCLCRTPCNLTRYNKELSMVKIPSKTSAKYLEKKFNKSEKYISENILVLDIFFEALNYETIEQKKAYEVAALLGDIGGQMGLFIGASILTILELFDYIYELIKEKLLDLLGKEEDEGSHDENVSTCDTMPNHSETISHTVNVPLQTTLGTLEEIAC
Description: as §1, §2

[3] = molecular target: T3, human ASIC3a-eYFP (hASIC3a-eYFP) on transiently transfected CHO-K1 cells (human, UniProt Q9UHC3 1-531); assay: FACS on transiently transfected CHO-K1 cells
T3 construct: whole, on cells; not shown: eYFP fusion partner
T3 sequence (looked up): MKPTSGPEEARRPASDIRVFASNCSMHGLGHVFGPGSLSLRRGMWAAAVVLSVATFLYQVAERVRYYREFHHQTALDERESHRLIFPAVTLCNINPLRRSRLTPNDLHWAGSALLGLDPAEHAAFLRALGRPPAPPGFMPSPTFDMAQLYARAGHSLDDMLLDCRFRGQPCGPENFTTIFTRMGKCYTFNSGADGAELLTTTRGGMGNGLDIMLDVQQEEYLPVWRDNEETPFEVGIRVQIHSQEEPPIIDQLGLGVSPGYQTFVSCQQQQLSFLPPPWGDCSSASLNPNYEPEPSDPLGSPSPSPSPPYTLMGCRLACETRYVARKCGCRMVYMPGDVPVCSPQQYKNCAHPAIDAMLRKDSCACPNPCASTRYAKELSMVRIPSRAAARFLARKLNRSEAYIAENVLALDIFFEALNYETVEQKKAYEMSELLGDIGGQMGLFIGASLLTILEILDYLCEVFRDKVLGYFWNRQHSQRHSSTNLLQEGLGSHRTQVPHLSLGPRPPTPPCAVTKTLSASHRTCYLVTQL
Description: as §1, §2

[4] = molecular target: T4, human ASIC3a (hASIC3a-eYFP) (Homo sapiens, UniProt Q9UHC3); assay: FACS-based binding assay, transiently transfected CHO-K1 cells (isotype selectivity)
T4 construct: expressed in transfected cells; host or cells: CHO-K1 (transient)
T4 sequence (Q9UHC3 1-531): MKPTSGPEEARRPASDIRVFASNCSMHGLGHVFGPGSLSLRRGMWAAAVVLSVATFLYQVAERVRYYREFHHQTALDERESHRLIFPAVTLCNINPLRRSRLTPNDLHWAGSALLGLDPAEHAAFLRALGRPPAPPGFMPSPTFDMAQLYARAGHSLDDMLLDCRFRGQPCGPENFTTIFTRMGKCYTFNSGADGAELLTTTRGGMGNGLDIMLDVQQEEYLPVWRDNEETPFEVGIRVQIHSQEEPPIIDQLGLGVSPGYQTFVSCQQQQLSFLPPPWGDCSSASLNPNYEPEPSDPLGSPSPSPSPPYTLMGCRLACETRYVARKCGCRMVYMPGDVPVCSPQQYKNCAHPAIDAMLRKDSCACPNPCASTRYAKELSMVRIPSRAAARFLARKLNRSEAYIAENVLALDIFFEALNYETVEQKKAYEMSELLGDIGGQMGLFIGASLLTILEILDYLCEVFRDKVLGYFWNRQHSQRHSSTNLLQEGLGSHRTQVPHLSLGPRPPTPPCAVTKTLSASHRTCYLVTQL
Description: as §2

[5] = molecular target: T5, human ASIC2a (hASIC2a-eYFP) (Homo sapiens, UniProt Q16515); assay: as above
T5 construct: expressed in transfected cells; host or cells: CHO-K1 (transient)
T5 sequence (Q16515 1-512): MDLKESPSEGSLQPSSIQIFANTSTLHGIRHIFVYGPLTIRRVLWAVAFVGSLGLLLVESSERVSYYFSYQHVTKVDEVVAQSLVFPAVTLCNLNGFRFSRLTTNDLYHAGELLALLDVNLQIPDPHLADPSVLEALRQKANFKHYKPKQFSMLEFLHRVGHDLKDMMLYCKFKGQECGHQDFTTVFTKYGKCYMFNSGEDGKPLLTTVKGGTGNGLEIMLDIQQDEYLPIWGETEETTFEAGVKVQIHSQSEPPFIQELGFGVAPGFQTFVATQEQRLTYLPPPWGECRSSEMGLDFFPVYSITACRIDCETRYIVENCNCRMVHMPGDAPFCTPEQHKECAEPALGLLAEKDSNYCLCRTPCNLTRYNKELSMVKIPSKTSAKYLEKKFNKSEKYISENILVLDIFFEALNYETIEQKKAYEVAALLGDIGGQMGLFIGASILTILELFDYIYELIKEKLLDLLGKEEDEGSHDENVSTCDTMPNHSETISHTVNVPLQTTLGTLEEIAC
Description: as §2

Molecule	binding result [1]	binding result [2]	binding result [3]	binding to the hASIC3a isoform [4]	binding to the hASIC2a isoform [5]
ASC06-03-IgG1 (antibody, V domains shown, Full length IgG1) VH: QVQLQQSGGGLVQPGGSLRLSCAASGFTFSSYAMSWVRQAPGKGLEWVSAISGSGGSTYYADSVKGRFTISRDNSKNTLYLQMNSLRAEDTAVYYCAKDSFYGRAKGSWGQGTLVTVSS VL: QSALTQPASVSGSPGQSITISCTGTSSDVGAYNYVSWYQQQPGKAPKLMIYGVSNRPSGVSNRFSGSKSGNAASLTISGLQAEDEADYYCSSYTSSSTYVFGTGTKLTVLG	binds	no binding	no binding		
ASC06-01-IgG1: affinity-matured ASC06 derivative, VH-CDR3 DSYFGYSKGD (SEQ ID NO: 11) (antibody, V domains shown) VH: QVQLQQSGGGLVQPGGSLRLSCAASGFTFSSYAMSWVRQAPGKGLEWVSAISGSGGSTYYADSVKGRFTISRDNSKNTLYLQMNSLRAEDTAVYYCAKDSYFGYSKGDWGQGTLVTVSS VL: QSALTQPASVSGSPGQSITISCTGTSSDVGAYNYVSWYQQQPGKAPKLMIYGVSNRPSGVSNRFSGSKSGNAASLTISGLQAEDEADYYCSSYTSSSTYVFGTGTKLTVLG				no detectable binding	no detectable binding
ASC06-03-IgG1: affinity-matured ASC06 derivative, VH-CDR3 DSFYGRAKGS (SEQ ID NO: 15) (antibody, V domains shown) VH: QVQLQQSGGGLVQPGGSLRLSCAASGFTFSSYAMSWVRQAPGKGLEWVSAISGSGGSTYYADSVKGRFTISRDNSKNTLYLQMNSLRAEDTAVYYCAKDSFYGRAKGSWGQGTLVTVSS VL: QSALTQPASVSGSPGQSITISCTGTSSDVGAYNYVSWYQQQPGKAPKLMIYGVSNRPSGVSNRFSGSKSGNAASLTISGLQAEDEADYYCSSYTSSSTYVFGTGTKLTVLG				no detectable binding	no detectable binding
ASC06-02-IgG1: affinity-matured ASC06 derivative, VH-CDR3 DSFFGRAKGS (SEQ ID NO: 13) (antibody, V domains shown) VH: QVQLQQSGGGLVQPGGSLRLSCAASGFTFSSYAMSWVRQAPGKGLEWVSAISGSGGSTYYADSVKGRFTISRDNSKNTLYLQMNSLRAEDTAVYYCAKDSFFGRAKGSWGQGTLVTVSS VL: QSALTQPASVSGSPGQSITISCTGTSSDVGAYNYVSWYQQQPGKAPKLMIYGVSNRPSGVSNRFSGSKSGNAASLTISGLQAEDEADYYCSSYTSSSTYVFGTGTKLTVLG				no detectable binding	no detectable binding
ASC06-IgG1: parental (WT) ASIC1a-specific antagonist antibody; VL SEQ ID NO: 2, VH SEQ ID NO: 7, VH-CDR3 DSFYGYSKGD (antibody, V domains shown, IgG1 constant regions; Amino acid sequence VH of ASC06; Amino acid sequence VL of ASC06) VH: QVQLQQSGGGLVQPGGSLRLSCAASGFTFSSYAMSWVRQAPGKGLEWVSAISGSGGSTYYADSVKGRFTISRDNSKNTLYLQMNSLRAEDTAVYYCAKDSFYGYSKGDWGQGTLVTVSS VL: QSALTQPASVSGSPGQSITISCTGTSSDVGAYNYVSWYQQQPGKAPKLMIYGVSNRPSGVSNRFSGSKSGNAASLTISGLQAEDEADYYCSSYTSSSTYVFGTGTKLTVLG				no detectable binding	no detectable binding

Source: patent publication US20230174642A1, “AFFINITY-MATURATED ANTI-ASIC1a ANTIBODIES” (SHANGHAITECH UNIVERSITY, priority 2019, published 2023)
